The results in this text go back to the Human Domainome abundance scans (Beltran et al. 2025).

B1: Endonuclease CUE2, residues 9 to 47; numbered along this chain, P36075 (parent)
chain: HESKLSILMDMFPAISKSKLQVHLLENNNDLDLTIGLLL

± gives the uncertainty stated by the source.

In this series the parent is B1. In words: abundance fitness (aPCA) (normalised: wild type 0, dead -1); higher = more abundant; growth selection in yeast, the domain comes from the species named. As to conditions: Saccharomyces cerevisiae (strain ATCC 204508 / S288c).
On to HESKLSILMDMFPAISKSKLQVHLLEINNDLDLTIGLLL, for which the abundance fitness is -0.461 ± 0.41. Turning to HESKLSILMDMFPAISKSKLQVHLLETNNDLDLTIGLLL, the abundance fitness is -0.273 ± 0.062. For the variant HESKLSILMDMFPAISKSKLQVHLLEQNNDLDLTIGLLL, the abundance fitness was -0.132 ± 0.072. Turning to HESKLSILMDMFPAISKSKLQVHLLEKNNDLDLTIGLLL, the abundance fitness was -0.267 ± 0.14.

HESKLSILMDMFPAISKSKLQVHLLERNNDLDLTIGLLL: the abundance fitness is -0.244 ± 0.04. The same measure for HESKLSILMDMFPAISKSKLQVHLLEFNNDLDLTIGLLL: -0.482 ± 0.25. As for HESKLSILMDMFPAISKSKLQVHLLESNNDLDLTIGLLL, the abundance fitness was -0.164 ± 0.044. Turning to HESKLSILMDMFPAISKSKLQVHLLECNNDLDLTIGLLL, the abundance fitness is -0.024 ± 0.07. The figure for HESKLSILMDMFPAISKSKLQVHLLEPNNDLDLTIGLLL is -0.997 ± 0.12; for HESKLSILMDMFPAISKSKLQVHLLEENNDLDLTIGLLL it is -0.134 ± 0.094; for HESKLSILMDMFPAISKSKLQVHLLEWNNDLDLTIGLLL it is -0.364 ± 0.074.

For HESKLSILMDMFPAISKSKLQVHLLEMNNDLDLTIGLLL, the abundance fitness is -0.191 ± 0.077. Turning to HESKLSILMDMFPAISKSKLQVHLLELNNDLDLTIGLLL, the abundance fitness was -0.325 ± 0.051. For the variant HESKLSILMDMFPAISKSKLQVHLLEGNNDLDLTIGLLL, the abundance fitness was -0.243 ± 0.042. The figure for HESKLSILMDMFPAISKSKLQVHLLEVNNDLDLTIGLLL is -0.415 ± 0.062; for HESKLSILMDMFPAISKSKLQVHLLENNNCLDLTIGLLL it is -0.261 ± 0.11; for HESKLSILMDMFPAISKSKLQVHLLENNNTLDLTIGLLL it is -0.813 ± 0.17. The figure for HESKLSILMDMFPAISKSKLQVHLLENNNLLDLTIGLLL is -0.66 ± 0.18. As for HESKLSILMDMFPAISKSKLQVHLLENNNGLDLTIGLLL, the abundance fitness was -0.759 ± 0.067. With HESKLSILMDMFPAISKSKLQVHLLENNNHLDLTIGLLL, the abundance fitness was -0.145 ± 0.2. Turning to HESKLSILMDMFPAISKSKLQVHLLENNNRLDLTIGLLL, the abundance fitness is -0.246 ± 0.045. With HESKLSILMDMFPAISKSKLQVHLLENNNALDLTIGLLL, the abundance fitness is -0.286 ± 0.035. In the case of HESKLSILMDMFPAISKSKLQVHLLENNNQLDLTIGLLL, the abundance fitness is -0.194 ± 0.075. For HESKLSILMDMFPAISKSKLQVHLLENNNKLDLTIGLLL, the abundance fitness was -0.165 ± 0.11.

For HESKLSILMDMFPAISKSKLQVHLLENNNSLDLTIGLLL, the abundance fitness is -0.223 ± 0.072. The same measure for HESKLSILMDMFPAISKSKLQVHLLENNNMLDLTIGLLL: 0.097 ± 0.22; for HESKLSILMDMFPAISKSKLQVHLLENNNELDLTIGLLL: -0.171 ± 0.042; for HESKLSILMDMFPAISKSKLQVHLLENNTDLDLTIGLLL: -0.402 ± 0.088.

In the case of HESKLSILMDMFPAISKSKLQVHLLENNVDLDLTIGLLL, the abundance fitness was -0.262 ± 0.051.

On to HESKLSILMDMFPAISKSKLQVHLLENNKDLDLTIGLLL, for which the abundance fitness was -0.364 ± 0.076. On to HESKLSILMDMFPAISKSKLQVHLLENNADLDLTIGLLL, for which the abundance fitness was -0.086 ± 0.041. The figure for HESKLSILMDMFPAISKSKLQVHLLENNLDLDLTIGLLL is -0.112 ± 0.058; for HESKLSILMDMFPAISKSKLQVHLLENNHDLDLTIGLLL it is -0.117 ± 0.14; for HESKLSILMDMFPAISKSKLQVHLLENNMDLDLTIGLLL it is -0.008 ± 0.063. As to HESKLSILMDMFPAISKSKLQVHLLENNCDLDLTIGLLL, the abundance fitness turned out to be 0.052 ± 0.057. With HESKLSILMDMFPAISKSKLQVHLLENNWDLDLTIGLLL, the abundance fitness stood at 0.039 ± 0.038. As for HESKLSILMDMFPAISKSKLQVHLLENNQDLDLTIGLLL, the abundance fitness worked out at 0.037 ± 0.082. With HESKLSILMDMFPAISKSKLQVHLLENNRDLDLTIGLLL, the abundance fitness was -0.222 ± 0.035.

With HESKLSILMDMFPAISKSKLQVHLLENNDDLDLTIGLLL, the abundance fitness is -0.082 ± 0.11. The same measure for HESKLSILMDMFPAISKSKLQVHLLENNPDLDLTIGLLL: -0.324 ± 0.088; for HESKLSILMDMFPAISKSKLQVHLLENNSDLDLTIGLLL: -0.065 ± 0.05.

On to HESKLSILMDMFPAISKSKLQVHLLENNFDLDLTIGLLL, for which the abundance fitness is -0.059 ± 0.3. The figure for HESKLSILMDMFPAISKSKLQVHLGENNNDLDLTIGLLL is 0.001 ± 0.035; for HESKLSILMDMFPAISKSKLQVHLDENNNDLDLTIGLLL it is -0.181 ± 0.19; for HESKLSILMDMFPAISKSKLQVHLPENNNDLDLTIGLLL it is -0.952 ± 0.15. The figure for HESKLSILMDMFPAISKSKLQVHLKENNNDLDLTIGLLL is -0.126 ± 0.058. As to HESKLSILMDMFPAISKSKLQVHLNENNNDLDLTIGLLL, the abundance fitness is -0.333 ± 0.28. The figure for HESKLSILMDMFPAISKSKLQVHLSENNNDLDLTIGLLL is -0.017 ± 0.047; for HESKLSILMDMFPAISKSKLQVHLMENNNDLDLTIGLLL it is 0.043 ± 0.044; for HESKLSILMDMFPAISKSKLQVHLCENNNDLDLTIGLLL it is -0.002 ± 0.074. The same measure for HESKLSILMDMFPAISKSKLQVHLEENNNDLDLTIGLLL: 0.041 ± 0.049. As for HESKLSILMDMFPAISKSKLQVHLRENNNDLDLTIGLLL, the abundance fitness worked out at 0.045 ± 0.033.

Regarding HESKLSILMDMFPAISKSKLQVHLWENNNDLDLTIGLLL, the abundance fitness was -0.065 ± 0.04. The figure for HESKLSILMDMFPAISKSKLQVHLAENNNDLDLTIGLLL is 0.076 ± 0.037; for HESKLSILMDMFPAISKSKLQVHLTENNNDLDLTIGLLL it is 0.048 ± 0.047; for HESKLSILMDMFPAISKSKLQVHLVENNNDLDLTIGLLL it is 0.039 ± 0.042. Turning to HESKLSILMDMFPAISKSKLQVHLQENNNDLDLTIGLLL, the abundance fitness was found to be 0.073 ± 0.13. The figure for HESKLSILMDMFPAISKSKLQVYLLENNNDLDLTIGLLL is -0.154 ± 0.23; for HESKLSILMDMFPAISKSKLQVLLLENNNDLDLTIGLLL it is -0.139 ± 0.047.

In the case of HESKLSILMDMFPAISKSKLQVKLLENNNDLDLTIGLLL, the abundance fitness was -0.338 ± 0.1.

HESKLSILMDMFPAISKSKLQVPLLENNNDLDLTIGLLL: the abundance fitness was -0.622 ± 0.11. With HESKLSILMDMFPAISKSKLQVELLENNNDLDLTIGLLL, the abundance fitness was -0.163 ± 0.062. The same measure for HESKLSILMDMFPAISKSKLQVALLENNNDLDLTIGLLL: -0.075 ± 0.036; for HESKLSILMDMFPAISKSKLQVNLLENNNDLDLTIGLLL: -0.026 ± 0.089.
